In the nanobody polyreactivity screen of Harvey et al. (2022):

Assay: yeast display, Sf9 membrane polyspecificity reagent, FACS + sequencing; frameworks hold sequencing errors
Method in brief: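 In a synthetic yeast display library (Saccharomyces cerevisiae BJ5465), nanobody expression was induced with galactose for 36–48 hours. FACS gates were set low and high (top ~1%) using anti-HA fluorescence for expression and streptavidin fluorescence for binding of the Sf9 membrane reagent. Each polyreactivity label is drawn from the gate of origin.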

| Sequence | polyreactivity (PSR sort gate) |
| --- | --- |
| QVQLVESGGGLVHAGGSLRLSCAASGSIFGFNAMGWYRPAPGKERELVAAISSGSTYYADSVKGRYTISRDNAKTTVYLQMNSLKPEDTAVYYCAATTGYSWYGYWGQGTQVTVSS | low polyreactivity |
| QVQLEESGGGLVQAGGSLRLSCAASGFIFAQYAMGWYRKAPRKDRELVAAISWSGGSTYYADSVKGRFTISRDNAKNTVYLQMNSLKPEDTAVYYCAALFRNKSRYRYGYWGQGTQVTVSS | high polyreactivity |
| QVQLVESGGGLVQAGGSLRLSCAASGRIFFKNAMGWYRQAPGKERELVAAITWSGGRTYYADSVKGRFTISRDNAKNTVYLQMNSLKPEDTAVYYCNALAPSPYDWGQGTQVTVSS | high polyreactivity |
| QVQLVESGGGLVQAGGSLRLSCAASGLIFVAYAMGWYRQAPGKERELVAAISRSGGSTYYADSVKGRFTISRDNAKNTVYLQMNRLKPEDTAVYFCAKYYGARHVDDDYWGQGTQVTVSS | high polyreactivity |
| QVQLVESGGGLVQAGGSLRLSCAASGIISSVYAMGWYRQAPGKERELVAAISGSGGSTYYADSVKGRFTISRDNAKNTVYLQMNSQKPEDTAVYYCSKGYQYQGNSYGYWGQGTQVTVSS | low polyreactivity |
| QDQLVESGGGLVQAGGSLRLSCAASGSILVRNARGWYRQAPGKERELVASIDSGTSTNYADSVKGRFTISRDNAKTTVYLQLNSLKPEDTAVYYCAADWYYLWGRYYFWGQGTQVTVSS | high polyreactivity |
| QVQLVESGGGLVQAGGSLRLSCAASGRIFYIYAMGWYRQAPGKERELVAAISSGGTTNYADSVKGRFTISRDNAKNTVYLQMNSLKPEDTSVDYCNAVRGEKMGYWGQGTQVTVSS | high polyreactivity |
| QVQLVESGGGLVQAGGSLRLSCAASGRSFRYNTMGWYRQAPGKERELVAAITKGAATTYYADSVKGRFTISRDNAKNTVYLKMTSLKPEDTAVYYCNAVYSRIVTQKYWGQGTQVTVSS | high polyreactivity |
| QVQLVESGGGLVQAGGSLRLSCAASGFTFDSNAMGWYRQAPGKERELVAAISTGGSTYYADSVKGRFTISRDNAKNTVYLQMNSLKPEDTAVYYCARDPPYPDTWYGYWGQGTQVTVSS | low polyreactivity |
| QVQLVESGGGLVQAGGSLRLSCAASGYTFWWYAMGWYRQAPGKEREFVAAIRFSGGTRTYYADSVKGRFTISRENAKYTVFLQMNSLKPDDTAVYYCAADIAFRQWQVGDFDYWGQGTQVTVSS | low polyreactivity |
| QVQLVESGGGLVQAGGSLRLSCAASGFTFRGYDMGWYRQAPGKERELVAAISGGVSTNYADSVKGRFTISRDNAKNTVYLQMNSLKPEDTAVYYCAAVPVSAGYSSIFDYWGQGTQVTVSS | low polyreactivity |
| QVQLVESGGGLVQAGGSLRLSCAASGSIFYHYAMGWYRQAPGKERELVAGITSSGDRTHYADSVKGRFTISRDNAKNTVYLQMNSLKPEDTAVYYCNTATIHGTAYDYWGQGTQVTVSS | low polyreactivity |
| QVQLVESGGGLVQAGGSLRLSCAASGSTFAYNDMGWYRQAPGKERELVADIRSGGNTNYADSVKGRFTISRDNAKNTVYLHMNSLKPEATAVYYCATDGYRIDVYHPDYRYDYWGQGTQVTVSS | low polyreactivity |
| QVQLVESGGGLVQAGGSLRLSCAASGFTFWGNAMGWYRQAPGKEREMVAAITDTGSTNYADSVKGRCTISRDNAKNTVYLQMNSLKPEDTAVYYCAKDKAYYDWGQTNGYWGQGTQVTVSS | low polyreactivity |
| QVQLVESGGGLVHAGGSLRLSCAASGITFYEYTMGWYRQAPGKERELVADIDFSGDSTYYSDSVKGRFTISRDYAKNTVYLQMNSLKPEDTAVYYCAVEIIYWWYIYEYWGQGSQVTVSS | high polyreactivity |
| QVQVVESGGGLVQAGGSLRLSCAASGITFFLNAMGWYRQAPGKERELVAAISSGAGTTYADSVKGRFTISRDNAKNTFFLQMKSLKPEDTAVYYCAAAGDYVVPISSTAGFGGDYWGQGTQVTVSS | low polyreactivity |
| QVQLVESGGGLVQAGGSLRLSCAASGITLYRYAMGWYRHAPGKERELVAAISWSGGSTYYADSVKGRFTISRDNAKNTVYLQMNSLKPEDTAVYYCAADDYKDEHDYWGQGTQVTVSS | high polyreactivity |
| QVQLVESGGGLVQAGGSLRLSCAASGRTFGVYVMGWYRHAPGKERELVAFITISGGSTNYADSVKGRFTISRDNAKNTVYLQMNSLKPDDTAVYYCAARTYYGYDYWGQGNQVTVSS | high polyreactivity |
| QVQLVESGGGLVQAGGSLRLSCAASGSIFYSNAMGWYRQAPGKEREFVATITQTGSSTYDADSVKGRFTISRDNAKNTVYLQMNSLKPEVTAVYYCAVDWILYEYEDDFWYRYDYWGQGTQVTVSS | low polyreactivity |
| QVQLVESGGGLVQAGGSLRLSCAASGRTFRYNTMGCYRQAPGKERELVAAITKGAASTYYADSVKGRFTISRDNAKNTVYLQMNSLKPEDTAVYYCNAVYSRIVTQKYWGQGTQVTVSS | high polyreactivity |
| QVQLVESGGGLVQAGGSLRLSCAASGRIFGNNAMAWYRQATGKESELVAGISRTGGSTYYADSVKGRFTISRDNAKNTVYLQMNSLKPEDTAVFYCAALVYSGRYASYGYWGQGTQVTVSS | low polyreactivity |
| QVQLVESGGGLVQAGGSLRLSCAASGSIFYKNAMAWYRQAPGKERELVAAITWSGGSTYYADSVKGRFTISRDNAKNTVYLHMNSLKPEDTAVYYCAAGLYRYRKYGYWGQGTQVTVSS | low polyreactivity |

| Sequence | polyreactivity (PSR sort gate) |
| --- | --- |
| QVQLVESGGGLVQAGGSLRLSCAASGRIFAVNAMGWYRQAPGTERELVAAITNVASTKYADSVKGRFTISRDNAKNTVYLQMNSLKQEDTAVYYCNADLSQEDWKMDYWGQGTQVTVSS | low polyreactivity |
| QVQLVESGGGLVQAGGSLRLSCAASGRTFGYYAMGWYIQAPGKERELVAAISGSGGSTYYADSVKGRFTISRDNAKNTVYLQMNSLKPEDTEVYYCAARYIYYYAFGYNYWGQGTQVTVSS | high polyreactivity |
| QVQLVESGGGLVQAGGSLRLSCAASGRTFGGYVMGWYIQAPGKERELVASISSSAGSTYYADSVKGRFTISRDNAKNTVYLQMNSLKTEDTAVYYCAKRSYNPYYRYYRYPYGYWGQGTQVTVSS | high polyreactivity |
| QVQLVESGGGLVQAGGSLRLSCAASGSIFWSNAMGWYRQAPGKERELVAAITWSGGSTYADSVKGRFTISRDNAKNTVYLQMNSLKPEDTAVYYCATDYPWAWFESDYWGQGTQVTVSS | low polyreactivity |
| QVLLVESGGGLLQAGGSLRLSCAASGFTFLGYVMGWYRQAPGKEREFVADITESGGRTYYADSVKGRFTISRDNAKNTVYLQMNSLKPEDTAVYYCSGEVIFEQLNRMDYWGQGTQVTVSS | low polyreactivity |
| QVQLVESVGGLVQAGGSLRLSCAASGSTFYPNAMGWYRQAPGKEREFVAAITWSGGRTYYADSVKGRFTNSRDNAKNTVYLQMNSLKPEDTAVYYCSKGGYQHYCGQGTQVTVSS | high polyreactivity |
| QVQLVESGGGLVQAGGSLRLSCAASGFTFKYYVMGWYRQAPGKAREWVAAITNGGSTYYADSVKGRFTISRDNAKNTVYLQMNSLKPEDTAVYYCAASAYYHWLFDYRGQGTQVTVSS | high polyreactivity |
| QVQLVESGGGLVQAGGSLRLSCAASGFIFRGYAMGWYRQAPGKERELVAAITYSTGNTYYADSVKGRFTISRDNAKNTVYLQMNSLKPEDTAVYYCNKVVRKFIGGYVYYSGGYWGQGTQVTVSS | low polyreactivity |
| QVQLVESGGGLDQAGGSLRLSCAASGSTFRNNAMGCYRQAPGKEREFVAAISRRGGSTYADSVKGRFTISRDNAKITVYLQMNSLKPEDTAVYFCAVRPSRILTGGRMDYWGQGTQVTVSS | high polyreactivity |
| QVQLVESGGGLVQAGGSLRLSCAASGITFIGYVMGWYRQAPGKERELVAAISRSGASTYYADSVKGRFTISRDNAKNTVYLQMNSLKPEDTAVYYSATVRYHPAYYYWGQGTQVTVSS | high polyreactivity |
| QVQLEESGGGLFQAGGSLRLSCAASGSTFADNAMGWYRQATGKEAEFVAGISTNGGSTYYADSVKGRFTISRDNAKNTVYLQMNSLKPEDTAVYYCNADSIDPFLYDYWGQGTQVTVSS | low polyreactivity |
| QVQLQESGGALVQAGGSLRLSCAASGYISAGRQMGWYRQAPGKELEFVATINGGATTNYADSVKGRFTISRDNAKNSVYLQMNSLKPEDTAVYYCAAVIWYVQDYTYWGQGAQVTVSS | high polyreactivity |
| QVQLVESGAGLGQAGVSLRLSCAASGSTFPTYAMGWYRPAPGKERELVAAIDWSDGTTYYADSVKGRFTISRDNANNTVYLQMNSLKPDETAGYYCAASLSLSEYDYWGQATQVTVSS | low polyreactivity |
| QVQLVESGGGLVQAGGSLRLSCAASGRIFRFYAMGWYRKAPGKERELVAAITRNVGSTFYADSVKGRFTISRDNAKKTVYLQMNSLKPADTAVYYCAAESDYYYRYTFDYWGQGTQVTVSS | low polyreactivity |
| QVQLVESGGGLVQAGGILRLSCAASGRIFFPNAMGWFRQAPGKERELVASISRGTSTNYADSVKGRVTISRDNAKNTVYLQMHSLKPEDTAVYYCAAKSAPYFGGRSRYAYWGQGTQVTVSS | low polyreactivity |
| QVQLVESGGGLVQAGGSLRLSCAASGRTFGYYAMGWYRQAPGKERELVATITSRGGDTSYADSVKGRFTISRDNAKNTVYLQMKSLKPEDTAVYYCAADRFQGRDDYWGQGTQVTVSS | high polyreactivity |
| QVQIVESGGGLVQAGGSLRLSCAASGSIFFIYGMGWYRQAPVKERELVARIRVSGDSTYYADSVKGRFTISRDNAKNTVYVQMNSLKPVDTAVYYCNARSLWGYGYWGQCTQVTVSS | high polyreactivity |
| QVQLVESGGGLVQAGGSLRLSCAASGSIFQHYAMGLYRQAPGKERELVAAISYDTTSTYYADSVKGRFTISRDNAKNTVYLQMNSLKPEDTAVYYCNTYPEVYGPFQYDYWGQGTQVTVSS | low polyreactivity |
| QVQLVESGGGLVQAGGSLRLSCAAYGLTFHYYDMGWYRQAPGKERELVAAISAGGVNTYYADSVKGRFTISRDNAKNTVYLQMNSLKPEDTAVYFCAADYYVDVWSYTYGYWGQGTQVTVSS | high polyreactivity |
| QVQLVESGGGLVQAGGSLRLSCAASGSIFYPYAMGWYRQAPGKERELVAAISRSGGSTRYADSVKGRFTISRDNAKNTVYLQMNSLKPEDTAVYYCAVRVFYGVGLIGYYYWGQGTQVTVSS | high polyreactivity |
| QVQLVESGGGLFQAGGSLRLSCAASVITFSQYVMGWYRQAPGKERELVAAISYRGGTTYYADSVKGRFTISRDNAKNTVYLQMISLKPEDTAVYYCATLPQRQYSTRDYWGQGTQVTVSA | high polyreactivity |
